The results in this text go back to patent publication US20240293499A1 (SUNNYBROOK RESEARCH INSTITUTE, published 2024).

The target of assay [1] is T1, hVISTA-COMP-his, pentameric form comprising the extracellular IgV domain of human VISTA (human, UniProt Q9H7M9 33-194).
T1 construct: domain: extracellular IgV domain; not shown: his tag
As to the kind of experiment: SPR (BIAcore T200), single-cycle kinetics; hVISTA-COMP-his captured on anti-His chip, mAb as analyte; 1:1 Langmuir fit. How it is done:
(§1) Binding kinetics of mAbs and Nbs to hVISTA and mVISTA were obtained by surface plasmon resonance (SPR) using a BIAcore T200 (Cytiva) and HBS running buffer (20 mM of HEPES pH 7.4, 150 mM NaCl, 0.005% Tween-20, 3.4 mM EDTA). Briefly, anti-histidine antibodies were immobilized on a CM5 chip (29149604; Cytiva) using the His capture kit (28995056; Cytiva) following manufacture's protocol. For mAbs, VISTA was captured by flowing […] of hVISTA-COMP-his or mVISTA-COMP-his at a flow rate of 30 μL/min. Sensorgrams were collected using single-cycle kinetics covering five mAb concentrations (1:2 serial dilutions). For Nbs, solutions of each nanobody ([…]) were flown over an anti-histidine-coated chip. Five concentrations (1:2 serial dilutions) of hVISTA-Fc (produced in house) were then injected at a flow rate of 30 μL/min. KD, Kₒₙ, and Koff were calculated by analyzing the sensorgrams with a 1:1 Langmuir binding model²³ after subtracting reference sensorgrams.

The target of assay [2] is T1, hVISTA-COMP-his, pentameric form …. As to the kind of experiment: SPR (BIAcore T200), single-cycle kinetics, hVISTA-COMP-his captured on anti-His chip, mAb injected at 0.5, 1, 2, 4, 8 nM, 1:1 fit. The protocol: as §1
For assay [3] the target is unchanged. As to the kind of experiment: SPR (BIAcore T200), single-cycle kinetics, hVISTA-COMP-his captured on anti-His chip, mAb injected at 2, 4, 8, 16, 32 nM, 1:1 fit. The protocol: as §1
For assay [4], the target named is T2, human VISTA on primary human immune cells (CD14+CD16- classical monocytes of PBMCs) (human, UniProt Q9H7M9 33-311).
T2 construct: whole, on cells; Native protein on donor cells; also called hVISTA
T2 sequence (looked up): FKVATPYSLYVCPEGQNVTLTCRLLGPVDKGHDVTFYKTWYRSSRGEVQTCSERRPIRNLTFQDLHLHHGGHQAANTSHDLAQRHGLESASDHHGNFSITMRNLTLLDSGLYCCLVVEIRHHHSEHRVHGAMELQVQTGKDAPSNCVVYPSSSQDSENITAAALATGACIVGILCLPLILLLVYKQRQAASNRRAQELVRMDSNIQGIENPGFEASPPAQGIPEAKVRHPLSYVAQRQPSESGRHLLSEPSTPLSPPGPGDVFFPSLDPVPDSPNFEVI
As to the kind of experiment: flow cytometry on human PBMC, gate CD14+CD16- monocytes, ΔMFI against isotype control, 5 donors; representative histogram against mIgG. How it is done:
(§2) Binding of mAbs and Nbs to human and murine immune cells were tested using human PBMCs and mouse splenocytes. For binding on human cells, whole human blood was obtained from donors in accordance with guidelines set forth by the Sunnybrook Research Ethics board (REB approval number 443-2017). Human peripheral blood mononuclear cells (PMBCs) were isolated from whole blood using Ficoll Paque PLUS (1.077 g/ml) (17144003; Cytiva). PBMCs had their Fc receptors blocked with Human TruStain FcX (422301; BioLegend) then incubated with 2.5 μg of mAb, mouse IgG1 (401408; BioLegend), or rat IgG2a (400565; BioLegend) or 15 μg Nb for 1 hour at 4° C. After washing with PBS, the PBMCs were incubated with secondary antibodies (1 μL; FITC anti-mouse IgG1, FITC anti-HA, or FITC anti-rat IgG2a; 406605, 901507, or MRG2a-83; BioLegend) or control FITC anti-VISTA antibodies (clone B7H5DS8; 11-1088-42; eBioscience) for 40 minutes at 4° C. […] Finally, the PBMCs were washed and resuspended in 3 μM DAPI (D1306; Thermo Fisher Scientific) and cytometric profiles recorded using a BD LSR II flow cytometer (BD) maintained by The Centre for Flow Cytometry & Scanning Microscopy (CCSM) at Sunnybrook Research Institute (SRI; Sunnybrook Health Sciences Centre, Toronto, ON, Canada). […]

The target of assay [5] is T3, hVISTA-Fc (produced in house) (human, UniProt Q9H7M9 33-194, limits assumed).
T3 construct: Analyte in the SPR of the nanobodies; not shown: Fc
T3 sequence (looked up): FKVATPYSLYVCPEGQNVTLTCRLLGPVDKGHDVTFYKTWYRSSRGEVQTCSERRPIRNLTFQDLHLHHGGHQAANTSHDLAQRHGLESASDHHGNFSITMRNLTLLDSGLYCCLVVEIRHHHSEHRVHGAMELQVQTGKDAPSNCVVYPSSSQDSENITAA
Description: SPR (BIAcore T200), single-cycle kinetics; Nb captured on anti-His chip, hVISTA-Fc as analyte; 1:1 Langmuir fit. The protocol: as §1

The target of assay [6] is T3, hVISTA-Fc (produced in house). Description: SPR (BIAcore T200), single-cycle kinetics, Nb captured on anti-His chip, hVISTA-Fc injected at 1.9, 3.8, 7.5, 15, 30 nM, 1:1 fit. The protocol:
as §1

Assay [7] has as its target T2, human VISTA on primary human immune …. Description: flow cytometry on human PBMC, gate CD14+CD16- monocytes, ΔMFI against isotype control, 5 donors. How it is done: as §2
Assay [8] has as its target T1, hVISTA-COMP-his, pentameric form …. As to the kind of experiment: SPR (BIAcore T200), single-cycle kinetics, hVISTA-COMP-his captured on anti-His chip, mAb injected at 1, 2, 4, 8, 16 nM, 1:1 fit. The protocol:
as §1

Assay [9] concerns the target T4, mVISTA-COMP-his, pentameric form comprising the extracellular IgV domain of murine VISTA (mouse, UniProt Q9D659 33-191).
T4 construct: domain: extracellular IgV domain; Captured on an anti-histidine chip for SPR of the mAbs; also called recombinant mouse VISTA; not shown: his tag
T4 sequence (Q9D659 whole entry, looked up): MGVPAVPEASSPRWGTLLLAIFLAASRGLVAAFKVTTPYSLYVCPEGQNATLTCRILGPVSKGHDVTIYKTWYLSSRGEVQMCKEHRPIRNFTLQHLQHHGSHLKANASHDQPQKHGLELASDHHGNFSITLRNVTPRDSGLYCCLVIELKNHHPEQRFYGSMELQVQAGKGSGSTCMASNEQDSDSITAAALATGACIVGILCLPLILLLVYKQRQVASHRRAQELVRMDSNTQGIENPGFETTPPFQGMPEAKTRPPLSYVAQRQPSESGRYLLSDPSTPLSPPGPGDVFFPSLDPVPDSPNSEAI
As to the kind of experiment: SPR (BIAcore T200), single-cycle kinetics; mVISTA-COMP-his captured on anti-His chip, mAb as analyte; 1:1 Langmuir fit. How it is done:
as §1

In assay [10] the target is T1, hVISTA-COMP-his, pentameric form …. As to the kind of experiment: SPR (BIAcore T200), single-cycle kinetics, hVISTA-COMP-his captured on anti-His chip, mAb injected at 20, 40, 80, 160, 320 nM, 1:1 fit. How it is done:
as §1

The target of assay [11] is T4, mVISTA-COMP-his, pentameric form …. Description: SPR (BIAcore T200), single-cycle kinetics, mVISTA-COMP-his captured on anti-His chip, mAb injected at 20, 40, 80, 160, 320 nM, 1:1 fit. The protocol:
as §1

B1: murine anti-hVISTA mAb 7E12 (antibody, V domains shown)
VH: DVHLQESGPGLVKPSQSLSLTCSVTGYSITSGYYWNWIRQFPGNKLEWMGYISYDGNNNYNPSLKNRISITRDTSKNQFFLKLNSVTTEDTATYYCARGDYGSEAMDYWGQGTSVTVSS
VL: DIRVTQSPASLAVSLGQRATISCRASKSVSTSGYSYMNWYQQKPGQPPQLLIYLASNLESGVPARFSGSGSGTDFTLNIHPVEEEDAAIYYCQHSRELPWTFGGGTKLEIK
notes: Mouse IgG1 purified from hybridoma
On to B1, for which, in [1], binding was characterised by a dissociation constant (Kd) of 0.44 nM. In assay [2], the Kd turned out to be 0.442 nM, the koff was 0.000123 s⁻¹ and the kon was determined as 279000 M⁻¹ s⁻¹.

B2: murine anti-hVISTA mAb 8G10 (antibody, V domains shown)
VH: QVQLQQSGAELVRPGASVTLSCKASGYTFTDYEMHWVKQTPVHGLEWIGAIDPETGGTAYNQKFKGKATLTADKSSSTAYMELRSLTSEDSAVYYCTRWSLRPYAMDYWGQGTSVTVSS
VL: DVVMTHTPLSLPVSLGDQASISCRSSQSLVHNNGNTYLHWYLQKPGQSPKLLIYKVSNRFSGVPDRFSGSGSGTDFTLKISRVEAEDLGLYFCSQSTHVPWTFGGGTKLEIK
notes: Variable regions only, although headed 'Heavy Chain' and 'Light Chain'; Mouse IgG1 from hybridoma
Turning to B2, in assay [1], the affinity, expressed as Kd, was 0.98 nM. In assay [3], this molecule registered a Kd of 0.98 nM, a koff of 0.000111 s⁻¹ and a kon of 113000 M⁻¹ s⁻¹. Further, in [4], the binding result is given as “binds”.

B3: anti-hVISTA nanobody hVISTANb1 (VHH)
VHH: QVQLQESGGGLVQPGGSLRLSCAASGSVGTIFSMGWFRQAPGVQREMVATITNSGETNYAAFVKGRFTISRDNAENTVYLQMNSLKPEDTAAYYCNAFDYVGGRTYELPYWGQGTQVTVSS
notes: Llama nanobody made in E. coli WK6, purified by IMAC, detected with anti-HA
Take B3: binding in assay [5] was put at a Kd of 11 nM. Further, in assay [6], the Kd came to 10.8 nM, the koff worked out at 0.00109 s⁻¹ and the kon was 102000 M⁻¹ s⁻¹.

B4: murine anti-hVISTA mAb 7G5 (antibody, V domains shown)
VH: QIQLVQSGPELKKPGETVKISCKASGYTFTNYGMNWVKQAPEKGLKWMGWINTYTGEPTYADDFKGRFAFSLETSASTAYLQINNLKNEDTATYFCARRSNPWPNDYWGQGTSLTVSS
VL: DIQMTQSPSSFSASLGERVSLTCRASQEISGYLSWLQQKPDGTIKRLIYAASTLDSGVPKRFSGSRSGSDYSLTISSLESEDFADYYCLQYASYPWTFGGGTKLEIK
notes: as for B2
For B4, the binding result in assay [7] is on record as “binds”. Moreover, the results for the Kd in [1] and in assay [8] were 0.14 nM and 0.136 nM, respectively.

B5: rat anti-hmVISTA mAb 7C7 (antibody, V domains shown)
VH: EVQLVESGGGLVQPGRSLKLSCVASGFTFNKYWMSWTRQAPGKGLEWVASITNSGGNTYYPDSVKGRFTISRDNAQNTLYLQMNSLRSEDTATYYCTLGVDYWGQGAMVTVSS
VL: DVVMTQTPPSLSVTIGQSVSISCKSSQSLVYSDGKTYLHWLLQSSGRSPKRLIYQVSNLASGVPDRFSGTGSQKDFTLKISRVEAKDLGVYYCAQTTHFPYTFGAGTKLEMK
notes: Variable regions only; Rat IgG2a from hybridoma
With B5, the Kd in assay [1] was found to be 49 nM; in assay [9], 51 nM; in assay [10], 49.4 nM; in assay [11] it was 50.5 nM. Further, the dissociation rate constant (koff) in assay [10] came out at 2.2 s⁻¹; in [11] it was 0.002 s⁻¹. For the same molecule, the kon in assay [10] was determined as 4.45e+07 M⁻¹ s⁻¹; in assay [11], 39600 M⁻¹ s⁻¹.
